Values quoted from earlier work in publication PMC8002405.

Target: Human neonatal Fc receptor (hFcRn) (UniProt P55899+P61769)
Assay: microscale thermophoresis (MST)
Details: pH 5.5

Which KD does the source give for Human IgG1 (wild type) here?
The KD was 900 nM.
